Results published in the supplement of paper PMC9170038.

Tests used:
MS2 coat protein = assay: apparent KD of MS2 coat protein; designed switch direction (-1 OFF switch, 1 ON switch): 1; higher = weaker reporter binding
Method in brief: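 The reported apparent KD is a per-design median over clusters, from curve fits of normalised cluster fluorescence. Protein titrations used SNAP-549-labelled MS2 coat protein, doubled from 0.7 or 1.5 nM to 3 µM, in Tris-HCl pH 7.5 buffer with KCl, MgCl2, BSA, DTT, tRNA and Tween-20, with no input, 200 uM small-molecule ligand, or an oligonucleotide input. The RNA switches were transcribed on Illumina chips by stalled E. coli RNA polymerase.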

[1] = tested on: K4 kissing-loop RNA reporter; assay: apparent KD of K4 kissing-loop reporter; higher = weaker reporter binding; settings: Eterna round: R107;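 note: bound reporter read as fluorescence of individual clusters on recovered sequencing chips by microscopy, with normalized cluster intensities fitted with a binding model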
Description: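 RNA-MaP round R107: designed RNA switches with theophylline, tryptophan, arginine or FMN aptamers are transcribed on-chip within common flanks. They are titrated with a labelled K4 kissing-loop RNA reporter in RNA-MaP buffer (100 mM Tris pH 7.5, 80 mM KCl, 4 mM MgCl2), without ligand or with the indicated ligand. Median apparent KD per design.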

[2] = Eterna round: R95, input ligand: FMN 200 uM
[3] = Eterna round: R95, input ligand: microRNA oligo, concentration not stated
[4] = Eterna round: R95, input ligand: none
[5] = input ligand: microRNA oligo, concentration not stated
[6] = input ligand: theophylline 20 uM
[7] = input ligand: tryptophan 2.4 mM

Row | Sequence | apparent KD of MS2 coat protein (MS2 coat protein; [2]) [nM] | apparent KD of MS2 coat protein (MS2 coat protein; [3]) [nM] | apparent KD of MS2 coat protein (MS2 coat protein; [4]) [nM] | apparent KD of MS2 coat protein (MS2 coat protein; input ligand: FMN 200 uM) [nM] | apparent KD of MS2 coat protein (MS2 coat protein; [5]) [nM] | apparent KD of MS2 coat protein (MS2 coat protein; input ligand: none) [nM] | apparent KD of K4 kissing-loop reporter ([1]; input ligand: FMN 200 uM) [nM] | apparent KD of K4 kissing-loop reporter ([1]; input ligand: arginine 13.2 mM) [nM] | apparent KD of K4 kissing-loop reporter ([1]; input ligand: none) [nM] | apparent KD of K4 kissing-loop reporter [1, 6] [nM] | apparent KD of K4 kissing-loop reporter [1, 7] [nM]
1 | UUUAGUUGCGGGCAGGAUAUGUAUUAAAAUACAUGAGGAUCACCCAUGUGAGGUCAUAACGACCUACAGAAGGGCCAAUCGCGAC [Laonerce - 15] (puzzle: Same State 2) | 17.2 | 64.4 | 86.1 | – | – | – | – | – | – | – | –
2 | GCUAGAAAUAAAGCCAACAUGAGGAUCACCCAUGUAUGUUGGUAGGAUAUCGUAUGCAAAGCAUACGAGAAGGGCUAAUCUAGC [Mat - Same State NG 3 - JL Mod - D66] (Eterna round: R96, puzzle: Same State NG 3) | – | – | – | 90.8 | 57.4 | 90.2 | – | – | – | – | –
3 | GUUAUACAUGAGGAUCACCCAUGUCAAUGUAGUCGAGGAUAUGGGCAGCUAUGUAGCGUACUAGAAGGCGAAGAGU [JL-ss1-3.13 ViennaUCT mod] (puzzle: Same State 1) | 68.4 | 43.1 | 103 | – | – | – | – | – | – | – | –
4 | AGCACUUCAGAAGGAUAUGAGAUGCUAAGCAUCUUAGAAGGUCUGCCGUAAAGAAACGUCCACAUGAGGAUCACCCAUGUUGCA [Eternabot solution 28] (Eterna round: R96, puzzle: Same State NG 1) | – | – | – | 20.9 | 21.9 | 26 | – | – | – | – | –
5 | UAGUGAUUGCAAGGAUAUGCUAGUUUUUAUUUGUGUUUGAUAACAAACAUGAGGAUCACCCAUGUGCAGAAGGUGCUAGAUAUG [JR_SSNG2_Sub079] (Eterna round: R96, puzzle: Same State NG 2) | – | – | – | – | 348 | – | – | – | – | – | –
6 | UGUACCGACUCAGGAUAUGUCGUCGAAAGACGAAAUGGAGUGAUGUUCCUUAAACUGCGAAAGCAGACAGAAGGGAGUUGGUACU [FmnBS 29 C9+G77] | – | – | – | – | – | – | 137 | 200 | 235 | 233 | 216
7 | CCAAUCUGUUACGAUACCAGUCAAAGAUAUUUUAUCAAUGCCCUCACCGAGUGAUGUUCGGACCCUUGGCAGCGUCUGGGAUAGG [ddfcmullin] | – | – | – | – | – | – | 165 | 142 | 186 | 165 | 149
8 | GCUGUCCAGUUCGAUACCAGAGUUAUCGCACUGUAGUGAUAAAGUGAUGUUUUAUCAGUCCUCCCUUGGCAGCGAUGCCCGGCUG [theeternabot_exclusion_KL_Theo_B_25] | – | – | – | – | – | – | 164 | 151 | 166 | 165 | 154
9 | UGUUAUGUAUCAGGAUAUUAGUGAUGUUUGUUGAUGUUAGUGAUGUUGAUAUUUGUUUUAUGUAUUUAAGAAGGGAUUGAGAUGU [ooilmullin] | – | – | – | – | – | – | 53.9 | 19.2 | 38.7 | 27.8 | 41.4
10 | UUAAUUAAGACGGCCGCCACUGAAUUAGAGUGAUGUUCUAAAAUUACUAAAUUAAAUUUAUUCAACAGGACCGGGUCAAUUAUUA [JR_SSTryptoB_Sub009] | – | – | – | – | – | – | 516 | 435 | 560 | 527 | 524
11 | AAACUCAGUGAUGUUGAGUGGGAGCGGGAUACCAGAUCGCCCAUCAUCCCUUGGCAGCCCGAGCGUCAGAAUACAUUUCAUUUGC [theeternabot_sameState_KL_Theo_A_6] | – | – | – | – | – | – | 339 | 349 | 349 | 385 | 263
12 | CGCCAGGGUGAAGGAUAUCCGUCUGAUUGAGCGCAGUGAUGUUGCGCGAUUCGUUCAUCGCUCGGAGGAGAAGGUCAGAUAACUC [theeternabot_sameState_KL_FMN_B_3] | – | – | – | – | – | – | 127 | 121 | 121 | 121 | 112
13 | UUUGGUUUCUCGGCCGCCACUCGUUGGUAAUGGGCCUCAGGGAUAUAGUGAUGUUAUGUAAAGAAGAGGACCGGGAGAAGGAAGG [ExTryptoB.Dn] | – | – | – | – | – | – | 235 | 229 | 303 | 267 | 156
14 | UCACUCAUGUGAAGGAGCGUGAGAAGACAUGAGUGAUGUUCAUGUCUAGACCAGCGUCUCUCACAGGUAGGUCGCACAUGAAAGG [Arg B SS t10] | – | – | – | – | – | – | 128 | 105 | 121 | 100 | 121
15 | UGUCAUUGGUCUGAUACCAGCUUGAUCGGAAACGAUCUGCUGGAGUGAUGUUCCAAGUAAAGCCCUUGGCAGCAGACCGAUGACU [TheoBS 8 #SwitchBubble #StaticStem] | – | – | – | – | – | – | 129 | 59.8 | 103 | 125 | 102
16 | CGUUUAUAGCAGGAUACCAGUACCCAUAAAGUACGUUAAUAGUAGAGUGAUGUUCUAAAGUACCCUUGGCAGCUUAGAGUGAGUG [ExTheophylB.Q] | – | – | – | – | – | – | 93.5 | 159 | 117 | 137 | 76.4
17 | AUUUUGUUGUCAGGAUAUUAGUAUGGUUUUGGUUUGUUAGUGAUGUUGAUGUUUUGUUUAUGUAUUUAAGAAGGGAUUUAGCGGU [aqaawgumullin] | – | – | – | – | – | – | 474 | 352 | 400 | 401 | 343
18 | GACGUGCGAGAGACCGCUCUACCUUGAGAUCGAGGACCGGUACGGCCGCCACUCGGUGUUUAACGUCGAUCCCAGUGAUGUUGGA [theeternabot_sameState_KL_Trp_A_21] | – | – | – | – | – | – | 521 | 230 | 429 | 450 | 234
19 | CAUUAAACUCAAACUAUUGGGUUUACGUUCCGAGGACCGGUACGGCCGCCACUCGGUCGAUGCUAUACCAUACGAGUGAUGUUCG [theeternabot_sameState_KL_Trp_A_1] | – | – | – | – | – | – | 465 | 452 | 502 | 404 | 352
20 | UUAGGAGAGGGAAGGAGCGUGAAAGAGAAAGAAUAUAGUGAUGUUAUAUAGAAGAAAGAAUCACAGGUAGGUCGCCCGGAGGAGG [SSArgB.C] | – | – | – | – | – | – | 672 | 520 | 632 | 225 | 518
